Results taken from publication PMC3597701.

Biological target: origin recognition complex (ORC) (S. cerevisiae) (UniProt P54784)
Assay: cross-linking

stoichiometry N (MCM2–7 hexamer per ORC): 1
Substance: MCM2–7 (mini-chromosome maintenance proteins 2–7) with a single HA tag at the N-terminus of Mcm3, P29469;P24279;P30665;P29496;P53091;P38132
